Assays:
[1] = target: T1, cynomolgus monkey OX40 protein expressed on the surface of cells (cynomolgus monkey); assay: flow cytometry (MFI) on activated primary monkey T cells, donor M20Z025008
T1 construct: whole, on cells; On transiently transfected 293T cells

[2] = target: T2, human OX40 protein expressed on the surface of cells (human, UniProt P43489 29-277); assay: flow cytometry (MFI) on transfected 293T cells
T2 construct: also called hOX40
T2 sequence: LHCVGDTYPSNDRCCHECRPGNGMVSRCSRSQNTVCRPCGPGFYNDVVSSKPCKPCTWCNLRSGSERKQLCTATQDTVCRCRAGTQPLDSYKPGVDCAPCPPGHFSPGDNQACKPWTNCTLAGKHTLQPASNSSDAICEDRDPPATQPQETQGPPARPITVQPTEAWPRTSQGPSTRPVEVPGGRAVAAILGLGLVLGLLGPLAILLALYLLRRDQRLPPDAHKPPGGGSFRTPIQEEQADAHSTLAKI

[3] = target: T1, cynomolgus monkey OX40 protein …; assay: flow cytometry (MFI) on transfected 293T cells
[4] = target: T2, human OX40 protein expressed on the …; assay: flow cytometry (MFI) on 293T cells expressing human OX40
[5] = target: T3, recombinant human OX40-mFc protein (human, UniProt P43489 29-214); assay: BLI (Octet QKe), antibody on anti-human Fc sensor, OX40-mFc in solution, 25 C, pH 7.4, 1:1 model; Experiment B
T3 construct: Recombinant dimer (mFc-tagged); also called hOX40.mFc; recombinant human OX40 protein; not shown: mFc tag
T3 sequence: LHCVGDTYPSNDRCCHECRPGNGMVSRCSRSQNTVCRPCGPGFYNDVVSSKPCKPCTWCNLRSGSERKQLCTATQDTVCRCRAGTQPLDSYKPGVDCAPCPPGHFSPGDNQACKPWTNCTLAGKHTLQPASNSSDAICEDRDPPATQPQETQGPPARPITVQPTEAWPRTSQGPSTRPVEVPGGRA

[6] = target: T3, recombinant human OX40-mFc protein; assay: BLI (Octet QKe), antibody on anti-human Fc sensor, OX40-mFc in solution, 25 C, pH 7.4, 1:1 model; Experiment A
Procedure: The changes of binding signal were recorded, and the kinetic analysis of binding parameters were determined using the Model: 1:1 with the mass transfer limitation. The running buffer solution was prepared with PBS, pH 7.4, containing 0.1% BSA and 0.1% Tween 20. Prior to the kinetic binding experiment, the anti-human Fe capture sensor was rinsed with the running buffer, and the instrument was prewarmed to 25° C. […] The binding of OX40 protein and its antibodies was performed in duplicate with the running buffer at pH 7.4 and 25° C. In short, first, the anti-human Fc capture sensor was immersed in the running buffer for 300 seconds to set the first baseline. The sensor was then mixed with 200 nM test antibody solution for 600 seconds to load the antibody. The sensor was again immersed in the running buffer for 300 seconds to set the second baseline, and then associated with various concentrations of OX40 antigen for 900 seconds. Then dissociation was performed by immersing the sensor in the running buffer for another 900 seconds. In parallel, one sensor was selected as a reference, in which all loading, association, and dissociation steps were performed in the running buffer. […] The sensorgrams were analyzed by Fortebio data analysis software version 8.2 (ForteBio; Fremont, CA). First, the signals were subtracted from the negative control experiment, and compared to the baselines. The kinetic parameters were obtained by entirely fitting these specific sensorgrams with different antigen concentrations to the binding Model: 1:1.

[7] = target: T1, cynomolgus monkey OX40 protein …; assay: flow cytometry (MFI) on 293T cells expressing cynomolgus monkey OX40
[8] = target: T4, human CD40 protein expressed on the surface of 293T cells (human, UniProt P25942 21-277); assay: flow cytometry on 293T cells transiently transfected with human CD40 (293T-hCD40), goat anti-human IgG PE, MFI
T4 construct: whole, on cells
Procedure: (§1) Then, after washing twice with PBS, the cells were incubated with the secondary goat anti-human IgG PE antibody (1:200; Abcam, Cat. ab98596) at room temperature for 30 minutes.

[9] = target: T2, human OX40 protein expressed on the …; assay: cell-based or functional assay
[10] = target: T1, cynomolgus monkey OX40 protein …; assay: flow cytometry (MFI) on activated primary monkey T cells, donor Lot #200107
[11] = target: T2, human OX40 protein expressed on the …; assay: flow cytometry (MFI) on CD3/CD28-activated primary human CD4+CD3+ T cells, first donor
[12] = target: T1, cynomolgus monkey OX40 protein …; assay: flow cytometry (MFI) on activated primary monkey T cells, donor M20Z013009
[13] = target: T5, biotinylated OX40 recombinant protein (UniProt P43489 29-216, limits assumed, biotinylated); assay: ELISA, plate coated with the antibody, biotinylated OX40 recombinant protein titrated (x axis = its concentration in nM), OD 450nm
T5 construct: also called OX40 protein; Biotin-OX40
T5 sequence (looked up): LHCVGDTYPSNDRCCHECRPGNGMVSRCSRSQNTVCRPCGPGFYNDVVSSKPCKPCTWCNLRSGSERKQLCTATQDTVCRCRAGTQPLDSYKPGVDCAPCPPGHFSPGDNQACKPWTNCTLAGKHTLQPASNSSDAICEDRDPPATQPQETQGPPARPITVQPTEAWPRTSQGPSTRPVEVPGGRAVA
Procedure: The next day, the plate was blocked with 1% BSA (Sangon Biotech, catalog number A600332-0100) in PBST at 37° C. for 2 hours, and then a defined concentration of biotinylated OX40 recombinant protein was added.

[14] = target: T2, human OX40 protein expressed on the …; assay: flow cytometry (MFI) on CD3/CD28-activated primary human CD4+CD3+ T cells, second donor
Procedure: Activation of human T cells were evaluated using CD3⁺ T cells isolated from two human donors' peripheral blood mononuclear cells (hPBMCs) pre-activated using CD3/CD28 Dynabeads.

[15] = target: T6, mouse OX40 protein expressed on the surface of 293T cells (mouse, UniProt P47741 20-272); assay: flow cytometry on 293T cells transiently transfected with mouse OX40, goat anti-human IgG PE, MFI
T6 construct: whole, on cells
T6 sequence (looked up): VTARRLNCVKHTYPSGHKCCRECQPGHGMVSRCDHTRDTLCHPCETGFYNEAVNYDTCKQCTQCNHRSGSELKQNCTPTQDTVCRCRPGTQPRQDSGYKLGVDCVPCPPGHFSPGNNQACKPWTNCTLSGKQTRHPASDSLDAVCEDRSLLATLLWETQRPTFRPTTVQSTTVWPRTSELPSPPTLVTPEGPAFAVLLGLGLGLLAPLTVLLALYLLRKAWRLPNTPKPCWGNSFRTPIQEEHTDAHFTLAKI
Procedure: as §1

T4 sequence (P25942 21-277): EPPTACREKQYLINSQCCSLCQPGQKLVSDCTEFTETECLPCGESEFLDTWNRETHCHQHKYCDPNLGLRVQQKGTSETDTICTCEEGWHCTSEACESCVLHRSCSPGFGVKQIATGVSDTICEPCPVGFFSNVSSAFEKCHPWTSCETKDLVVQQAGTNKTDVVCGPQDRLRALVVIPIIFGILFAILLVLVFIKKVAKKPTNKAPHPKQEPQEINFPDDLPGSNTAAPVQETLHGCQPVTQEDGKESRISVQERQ

B1: anti-OX40 antibody HFB10-1E1hG1 (antibody, human IgG1, kappa, V domains shown)
VH: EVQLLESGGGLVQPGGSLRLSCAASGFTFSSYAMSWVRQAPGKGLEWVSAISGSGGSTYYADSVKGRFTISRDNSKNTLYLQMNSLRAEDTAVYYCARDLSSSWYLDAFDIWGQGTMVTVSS
VL: DIQMTQSPSSVSASVGDRVTITCRASQGISSWLAWYQQKPGKAPKLLIYAASSLQSGVPSRFSGSGSGTDFTLTISSLQPEDFATYYCQQANSFPLTFGGGTKLEIKR
notes: also called HFB301001
[1]
  EC50: 0.17 nM
[2]
  EC50: 2 nM
[3]
  EC50: 2.9 nM
[4]
  EC50: 2.02 nM
[5]
  Kd: 4.4 nM
  koff: 0.00043 s⁻¹
  kon: 97000 M⁻¹ s⁻¹
[6]
  Kd: 4.5 nM
  koff: 0.00043 s⁻¹
  kon: 97000 M⁻¹ s⁻¹
[7]
  EC50: 2.94 nM
[8]
  binding result: no binding (tested: 100 nM)
[9]
  CD16 signaling in CD16-NF-AT-Luc reporter Jurkat cells, EC50 (nM), E:T 1:1: 1.2 nM
  CD16 signaling in CD16-NF-AT-Luc reporter Jurkat cells, EC50 (nM), E:T 3:1: 0.7 nM
  CD16 signaling in CD16-NF-AT-Luc reporter Jurkat cells, EC50 (nM), E:T 6:1: 0.5 nM
  CD16 signaling in CD16-NF-AT-Luc reporter Jurkat cells, EC50 (nM), E:T 12:1: 0.3 nM
[10]
  EC50: 0.09 nM
[11]
  EC50: 0.65 nM
[12]
  EC50: 0.19 nM
[13]
  EC50 (read off the curve): ~0.2 nM
[14]
  EC50: 1.36 nM
[15]
  binding result: no binding (tested: 100 nM)

— patent US20240317874A1 (HIFIBIO HK, published 2024)
